The source of these data is the supplement of paper PMC5998384.

Data set [1] deals with HeLa Kyoto. As to the kind of experiment: thermal stability score vs G1/S (z-score of summed log2 fold changes over temperatures); higher = more thermally stable than in G1/S.
In data set [2] the test system is HeLa Kyoto. Nature of the data set: solubility in G1/S (NP-40 vs SDS abundance) (log2 ratio); higher = more soluble. As to conditions: cell cycle stage: G1/S.
Data set [3] relates to HeLa Kyoto. As to the kind of experiment: melting temperature (median over replicates), in situ; higher = more thermally stable.
The test system of data set [4] is HeLa Kyoto. Nature of the data set: solubility change mitosis vs G1/S (difference of NP-40 vs SDS log2 ratios) (log2 ratio difference); higher = more soluble in mitosis.
Where [5] appears, read: cell cycle stage: early G1 (4.5 h after nocodazole release).
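Throughout, for melting temperature (median over replicates), in situ: HeLa Kyoto cells synchronized by double thymidine or nocodazole block, proteins quantified by TMT10plex mass spectrometry, three independent biological replicates.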
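Throughout, for solubility change mitosis vs G1/S (difference of NP-40 vs SDS log2 ratios): synchronized HeLa Kyoto cells (double thymidine block for G1/S, nocodazole release for mitosis), protein amounts in NP-40 versus SDS lysates quantified by mass spectrometry, three biological replicates.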
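Throughout, for solubility in G1/S (NP-40 vs SDS abundance): HeLa Kyoto cells arrested at G1/S by double thymidine block, proteins quantified by TMT10plex mass spectrometry in mild NP-40 versus SDS extracts, three biological replicates.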
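Throughout, for thermal stability score vs G1/S (z-score of summed log2 fold changes over temperatures): synchronized HeLa Kyoto cells, proteins quantified by TMT10plex mass spectrometry, three biological replicates, mitosis taken 0.5 h after nocodazole release, G1/S directly after double thymidine block.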

As to “MATTATCTRFTDDYQLFEELGKGAFSVVRRCVKKTSTQEYAAKIINTKKLSARDHQKLEREARICRLLKHPNIVRLHDSISEEGFHYLVFDLVTGGELFEDIVAREYYSEADASHCIHQILESVNHIHQHDIVHRDLKPENLLLASKCKGAAVKLADFGLAIEVQGEQQAWFGFAGTPGYLSPEVLRKDPYGKPVDIWACGVILYILLVGYPPFWDEDQHKLYQQIKAGAYDFPSPEWDTVTPEAKNLINQMLTINPAKRITADQALKHPWVCQRSTVASMMHRQETVECLRKFNARRKLKGAILTTMLVSRNFSAAKSLLNKKSDGGVKKRKSSSSVHLMPQSNNKNSLVSPAQEPAPLQTAMEPQTTVVHNATDGIKGSTESCNTTTEDEDLKGRVPEGRSSRDRTAPSAGMQPQPSLCSSAMRKQEIIKITEQLIEAINNGDFEAYTKICDPGLTSFEPEALGNLVEGMDFHKFYFENLLSKNSKPIHTTILNPHVHVIGEDAACIAYIRLTQYIDGQGRPRTSQSEETRVWHRRDGKWLNVHYHCSGAPAAPLQ [CAMK2G]”, the thermal stability score in the data set with HeLa Kyoto [1] (setting [5]) was -0.442; in the data set with HeLa Kyoto [1] (cell cycle stage: mitosis), -0.0382. Further, in the data set on HeLa Kyoto [2], the “solubility in G1/S (log2)” value was -0.382. The melting temperature in the data set with HeLa Kyoto [3] (cell cycle stage: G1/S) was 49.6 °C; with HeLa Kyoto [3] (cell cycle stage: mitosis), 48.9 °C. For the same sequence, in the data set on HeLa Kyoto [4], the “solubility change mitosis (log2)” value is 0.162.
On to “MATTGTPTADRGDAAATDDPAARFQVQKHSWDGLRSIIHGSRKYSGLIVNKAPHDFQFVQKTDESGPHSHRLYYLGMPYGSRENSLLYSEIPKKVRKEALLLLSWKQMLDHFQATPHHGVYSREEELLRERKRLGVFGITSYDFHSESGLFLFQASNSLFHCRDGGKNGFMVSPMKPLEIKTQCSGPRMDPKICPADPAFFSFINNSDLWVANIETGEERRLTFCHQGLSNVLDDPKSAGVATFVIQEEFDRFTGYWWCPTASWEGSEGLKTLRILYEEVDESEVEVIHVPSPALEERKTDSYRYPRTGSKNPKIALKLAEFQTDSQGKIVSTQEKELVQPFSSLFPKVEYIARAGWTRDGKYAWAMFLDRPQQWLQLVLLPPALFIPSTENEEQRLASARAVPRNVQPYVVYEEVTNVWINVHDIFYPFPQSEGEDELCFLRANECKTGFCHLYKVTAVLKSQGYDWSEPFSPGEDEFKCPIKEEIALTSGEWEVLARHGSKIWVNEETKLVYFQGTKDTPLEHHLYVVSYEAAGEIVRLTTPGFSHSCSMSQNFDMFVSHYSSVSTPPCVHVYKLSGPDDDPLHKQPRFWASMMEAASCPPDYVPPEIFHFHTRSDVRLYGMIYKPHALQPGKKHPTVLFVYGGPQVQLVNNSFKGIKYLRLNTLASLGYAVVVIDGRGSCQRGLRFEGALKNQMGQVEIEDQVEGLQFVAEKYGFIDLSRVAIHGWSYGGFLSLMGLIHKPQVFKVAIAGAPVTVWMAYDTGYTERYMDVPENNQHGYEAGSVALHVEKLPNEPNRLLILHGFLDENVHFFHTNFLVSQLIRAGKPYQLQIYPNERHSIRCPESGEHYEVTLLHFLQEYL [DPP9]”, for which the thermal stability score is -0.344 with HeLa Kyoto [1] (setting [5]) and -0.63 in the data set on HeLa Kyoto [1] (cell cycle stage: mitosis). Also, in the data set with HeLa Kyoto [2], the “solubility in G1/S (log2)” value was -0.0578. Moreover, the melting temperature worked out at 51.3 °C with HeLa Kyoto [3] (cell cycle stage: G1/S) and 51.1 °C with HeLa Kyoto [3] (cell cycle stage: mitosis). Besides, the “solubility change mitosis (log2)” value in the data set with HeLa Kyoto [4] is -0.171.
For “MAVADLALIPDVDIDSDGVFKYVLIRVHSAPRSGAPAAESKEIVRGYKWAEYHADIYDKVSGDMQKQGCDCECLGGGRISHQSQDKKIHVYGYSMAYGPAQHAISTEKIKAKYPDYEVTWANDGY [PHPT1]”, the thermal stability score was -0.712 in the data set on HeLa Kyoto [1] (setting [5]) and -1.99 in the data set with HeLa Kyoto [1] (cell cycle stage: mitosis). In addition, the “solubility in G1/S (log2)” value with HeLa Kyoto [2] came out at 0.345. The melting temperature in the data set on HeLa Kyoto [3] (cell cycle stage: G1/S) stood at 52.9 °C; in the data set on HeLa Kyoto [3] (cell cycle stage: mitosis), 53.5 °C. Further, in the data set with HeLa Kyoto [4], the “solubility change mitosis (log2)” value was 0.028.
As to “MAVARVDAALPPGEGSVVNWSGQGLQKLGPNLPCEADIHTLILDKNQIIKLENLEKCKRLIQLSVANNRLVRMMGVAKLTLLRVLNLPHNSIGCVEGLKELVHLEWLNLAGNNLKAMEQINSCTALQHLDLSDNNISQIGDLSKLVSLKTLLLHGNIITSLRMAPAYLPRSLAILSLAENEIRDLNEISFLASLTELEQLSIMNNPCVMATPSIPGFDYRPYIVSWCLNLRVLDGYVISQKESLKAEWLYSQGKGRAYRPGQHIQLVQYLATVCPLTSTLGLQTAEDAKLEKILSKQRFHQRQLMNQSQNEELSPLVPVETRASLIPEHSSPVQDCQISQESEPVIQVNSWVGINSNDDQLFAVKNNFPASVHTTRYSRNDLHLEDIQTDEDKLNCSLLSSESTFMPVASGLSPLSPTVELRLQGINLGLEDDGVADESVKGLESQVLDKEEEQPLWAANENSVQMMRSEINTEVNEKAGLLPCPEPTIISAILKDDNHSLTFFPESTEQKQSDIKKPENTQPENKETISQATSEKLPMILTQRSVALGQDKVALQKLNDAATKLQACWRGFYARNYNPQAKDVRYEIRLRRMQEHIVCLTDEIRRLRKERDEERIKKFVQEEAFRFLWNQVRSLQVWQQTVDQRLSSWHTDVPPISSTLVPSKHPLFTQSQESSCDQNADWFIASDVAPQEKSLPEFPDSGFHSSLTEQVHSLQHSLDFEKSSTEGSESSIMGNSIDTVRYGKESDLGDVSEEHGEWNKESSNNEQDNSLLEQYLTSVQQLEDADERTNFDTETRDSKLHIACFPVQLDTLSDGASVDESHGISPPLQGEISQTQENSKLNAEVQGQQPECDSTFQLLHVGVTV [CEP97]”, the thermal stability score with HeLa Kyoto [1] (setting [5]) is 0.503; in the data set on HeLa Kyoto [1] (cell cycle stage: mitosis), 1.24. In addition, the “solubility in G1/S (log2)” value in the data set on HeLa Kyoto [2] was determined as 0.0763. Besides, the melting temperature with HeLa Kyoto [3] (cell cycle stage: G1/S) was 49.6 °C; with HeLa Kyoto [3] (cell cycle stage: mitosis), 49.9 °C. In addition, the “solubility change mitosis (log2)” value in the data set on HeLa Kyoto [4] was -0.207.
As for “MAVAVAMAGALIGSEPGPAEELAKLEYLSLVSKVCTELDNHLGINDKDLAEFVISLAEKNTTFDTFKASLVKNGAEFTDSLISNLLRLIQTMRPPAKPSTSKDPVVKPKTEKEKLKELFPVLCQPDNPSVRTMLDEDDVKVAVDVLKELEALMPSAAGQEKQRDAEHRDRTKKKKRSRSRDRNRDRDRDRERNRDRDHKRRHRSRSRSRSRTRERNKVKSRYRSRSRSQSPPKDRKDRDKYGERNLDRWRDKHVDRPPPEEPTIGDIYNGKVTSIMQFGCFVQLEGLRKRWEGLVHISELRREGRVANVADVVSKGQRVKVKVLSFTGTKTSLSMKDVDQETGEDLNPNRRRNLVGETNEETSMRNPDRPTHLSLVSAPEVEDDSLERKRLTRISDPEKWEIKQMIAANVLSKEEFPDFDEETGILPKVDDEEDEDLEIELVEEEPPFLRGHTKQSMDMSPIKIVKNPDGSLSQAAMMQSALAKERRELKQAQREAEMDSIPMGLNKHWVDPLPDAEGRQIAANMRGIGMMPNDIPEWKKHAFGGNKASYGKKTQMSILEQRESLPIYKLKEQLVQAVHDNQILIVIGETGSGKTTQITQYLAEAGYTSRGKIGCTQPRRVAAMSVAKRVSEEFGCCLGQEVGYTIRFEDCTSPETVIKYMTDGMLLRECLIDPDLTQYAIIMLDEAHERTIHTDVLFGLLKKTVQKRQDMKLIVTSATLDAVKFSQYFYEAPIFTIPGRTYPVEILYTKEPETDYLDASLITVMQIHLTEPPGDILVFLTGQEEIDTACEILYERMKSLGPDVPELIILPVYSALPSEMQTRIFDPAPPGSRKVVIATNIAETSLTIDGIYYVVDPGFVKQKVYNSKTGIDQLVVTPISQAQAKQRAGRAGRTGPGKCYRLYTERAYRDEMLTTNVPEIQRTNLASTVLSLKAMGINDLLSFDFMDAPPMETLITAMEQLYTLGALDDEGLLTRLGRRMAEFPLEPMLCKMLIMSVHLGCSEEMLTIVSMLSVQNVFYRPKDKQALADQKKAKFHQTEGDHLTLLAVYNSWKNNKFSNPWCYENFIQARSLRRAQDIRKQMLGIMDRHKLDVVSCGKSTVRVQKAICSGFFRNAAKKDPQEGYRTLIDQQVVYIHPSSALFNRQPEWVVYHELVLTTKEYMREVTTIDPRWLVEFAPAFFKVSDPTKLSKQKKQQRLEPLYNRYEEPNAWRISRAFRRR [DHX8]”, the thermal stability score turned out to be 1.86 in the data set with HeLa Kyoto [1] (setting [5]) and 4.58 in the data set on HeLa Kyoto [1] (cell cycle stage: mitosis). Besides, in the data set with HeLa Kyoto [2], the “solubility in G1/S (log2)” value is -0.655. The melting temperature in the data set with HeLa Kyoto [3] (cell cycle stage: G1/S) came out at 49.9 °C; in the data set on HeLa Kyoto [3] (cell cycle stage: mitosis) it was 50.7 °C. Also, the “solubility change mitosis (log2)” value with HeLa Kyoto [4] was 0.24.
